Experimental findings from publication PMC6399291 are described below.

The target of test [1] is 14-3-3β (UniProt P31946). In words: GFP-14-3-3β IP, anti-myc blot. The conditions noted are these: reference: wild type; sites S351,S377.
Test [2] has as its target CDK4 (UniProt P11802). In words: reciprocal co-IP, anti-GFP or anti-CDK4. The conditions noted are these: reference: wild type; sites S351,S377.
The target of test [3] is CDK4 (UniProt P11802). In words: glutathione-bead pull-down from co-transfected cells, anti-Flag blot. The conditions noted are these: sites S351,S377.

Chain of UniProt P11802 (P11802 whole entry, looked up): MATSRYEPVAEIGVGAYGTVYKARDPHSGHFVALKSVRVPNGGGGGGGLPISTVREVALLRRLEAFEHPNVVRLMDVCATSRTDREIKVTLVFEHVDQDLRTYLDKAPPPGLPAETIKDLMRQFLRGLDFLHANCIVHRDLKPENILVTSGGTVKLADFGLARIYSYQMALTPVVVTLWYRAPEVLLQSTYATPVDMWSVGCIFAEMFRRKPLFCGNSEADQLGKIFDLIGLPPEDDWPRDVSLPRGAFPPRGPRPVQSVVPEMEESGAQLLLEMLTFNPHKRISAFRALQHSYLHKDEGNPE
Chain of UniProt P31946 (P31946 whole entry, looked up): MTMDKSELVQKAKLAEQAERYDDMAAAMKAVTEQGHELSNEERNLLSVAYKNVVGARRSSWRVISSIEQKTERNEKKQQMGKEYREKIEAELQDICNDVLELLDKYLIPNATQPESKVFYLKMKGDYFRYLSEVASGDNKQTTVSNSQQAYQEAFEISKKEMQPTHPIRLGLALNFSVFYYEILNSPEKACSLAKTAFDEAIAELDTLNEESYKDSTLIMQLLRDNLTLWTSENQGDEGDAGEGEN

Regarding “PIKE-A (from UniProt Q99490-2) S351/377A (SA)”, the “binding against the reference” value in test [1] is reported as “weaker”.

For PIKE-A (from UniProt Q99490-2) SA, the “binding against the reference” value in test [2] was “weaker”. In the case of “PIKE-A (from UniProt Q99490-2) SA + myc-AMPKα T172A”, the “binding against the reference” value in test [3] (reference: wild type + myc-AMPKα T172A) is reported as “weaker”. As for “PIKE-A (from UniProt Q99490-2) SA + myc-AMPKα T172D”, the “binding against the reference” value in test [3] (reference: wild type + myc-AMPKα T172D) is listed as “weaker”.
